{
  "source": "patent US20210122826A1",
  "about": "(MIT, published 2021)",
  "binders": {"B1": {"name": "anti-CD161 KW17 (antibody, V domains shown)", "VH": "not shown", "VL": "QSVLTQPPSVSGAPGQRVTISCTGSSSNIGAGYDVHWYQQLPGTAPKLLIYGNSNRPSGVPDRFSGSKSGTSASLAITGLQAEDEADYYCQSYDSSHTVFGGGTQLTVL", "notes": "Human, lambda light chain; scFv-Fc or full IgG not clear; also called KW17-Fc"}},
  "assay_in_all_cases": "flow, Jurkat, 100 nM Ab",
  "key": {"[1]": {"molecular_target": "T1, Human Clec10A (human, UniProt Q8IUN9 1-316)", "T1 construct": "also called hClec10A", "T1 sequence": "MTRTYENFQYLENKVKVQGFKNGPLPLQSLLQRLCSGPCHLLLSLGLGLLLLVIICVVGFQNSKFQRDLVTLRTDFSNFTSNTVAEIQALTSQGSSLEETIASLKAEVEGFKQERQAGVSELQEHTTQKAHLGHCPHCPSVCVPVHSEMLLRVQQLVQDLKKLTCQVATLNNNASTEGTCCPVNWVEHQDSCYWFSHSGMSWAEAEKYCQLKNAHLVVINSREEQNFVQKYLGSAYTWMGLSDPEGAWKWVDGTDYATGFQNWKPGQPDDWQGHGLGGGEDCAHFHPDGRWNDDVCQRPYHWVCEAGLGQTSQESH"}, "[2]": {"molecular_target": "T2, cynomolgus CD161 (cynomolgus)", "T2 construct": "UniProt A0A2K5WYI1; also called cynoCD161", "T2 chain": "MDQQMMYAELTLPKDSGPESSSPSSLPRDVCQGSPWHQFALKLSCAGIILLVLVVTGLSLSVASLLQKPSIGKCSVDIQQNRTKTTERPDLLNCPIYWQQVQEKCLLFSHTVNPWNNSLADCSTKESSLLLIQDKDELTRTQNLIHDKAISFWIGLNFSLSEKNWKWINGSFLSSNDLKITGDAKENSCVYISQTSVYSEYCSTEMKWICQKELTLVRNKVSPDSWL"}, "[3]": {"molecular_target": "T3, Human KLRF2 (human, UniProt D3W0D1 1-207)", "T3 construct": "also called hKLRF2", "T3 sequence": "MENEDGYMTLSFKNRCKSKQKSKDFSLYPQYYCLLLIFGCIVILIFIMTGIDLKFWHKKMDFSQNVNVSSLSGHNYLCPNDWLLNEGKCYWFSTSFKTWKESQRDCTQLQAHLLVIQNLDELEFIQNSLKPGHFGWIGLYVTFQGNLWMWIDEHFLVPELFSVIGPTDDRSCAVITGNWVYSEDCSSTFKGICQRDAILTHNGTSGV"}, "[4]": {"molecular_target": "T4, Human CD94 (human, UniProt Q13241 1-179)", "T4 construct": "also called hCD94", "T4 sequence": "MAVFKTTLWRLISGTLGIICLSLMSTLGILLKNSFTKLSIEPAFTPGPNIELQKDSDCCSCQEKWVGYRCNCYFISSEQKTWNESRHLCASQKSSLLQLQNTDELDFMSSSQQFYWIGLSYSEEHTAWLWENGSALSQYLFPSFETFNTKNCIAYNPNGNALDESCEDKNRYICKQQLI"}, "[5]": {"molecular_target": "T5, Human CD209 (human, UniProt Q9NNX6 1-404)", "T5 construct": "also called hCD209", "T5 sequence": "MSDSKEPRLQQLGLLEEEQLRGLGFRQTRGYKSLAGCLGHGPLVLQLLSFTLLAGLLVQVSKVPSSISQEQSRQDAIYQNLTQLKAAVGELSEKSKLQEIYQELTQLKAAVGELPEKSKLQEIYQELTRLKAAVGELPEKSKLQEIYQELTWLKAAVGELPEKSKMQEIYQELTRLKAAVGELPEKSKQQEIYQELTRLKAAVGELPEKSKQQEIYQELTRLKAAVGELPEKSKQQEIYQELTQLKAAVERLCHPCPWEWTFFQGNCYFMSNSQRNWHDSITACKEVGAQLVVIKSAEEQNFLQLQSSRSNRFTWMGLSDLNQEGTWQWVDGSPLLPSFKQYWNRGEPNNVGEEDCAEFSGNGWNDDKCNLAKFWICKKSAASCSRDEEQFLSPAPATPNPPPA"}, "[6]": {"molecular_target": "T6, Human Clec7A (human, UniProt Q9BXN2 1-247)", "T6 construct": "also called hClec7A", "T6 sequence": "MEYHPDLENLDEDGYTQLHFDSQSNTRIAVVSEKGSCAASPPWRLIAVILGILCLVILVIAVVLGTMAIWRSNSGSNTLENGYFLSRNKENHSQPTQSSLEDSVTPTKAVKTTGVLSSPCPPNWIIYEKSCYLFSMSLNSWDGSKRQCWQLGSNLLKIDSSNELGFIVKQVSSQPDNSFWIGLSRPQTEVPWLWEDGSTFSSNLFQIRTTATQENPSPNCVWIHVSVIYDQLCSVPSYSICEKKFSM"}, "[7]": {"molecular_target": "T7, Human Clec9A (human, UniProt Q6UXN8 1-241)", "T7 construct": "also called hClec9A", "T7 sequence (Q6UXN8 whole entry)": "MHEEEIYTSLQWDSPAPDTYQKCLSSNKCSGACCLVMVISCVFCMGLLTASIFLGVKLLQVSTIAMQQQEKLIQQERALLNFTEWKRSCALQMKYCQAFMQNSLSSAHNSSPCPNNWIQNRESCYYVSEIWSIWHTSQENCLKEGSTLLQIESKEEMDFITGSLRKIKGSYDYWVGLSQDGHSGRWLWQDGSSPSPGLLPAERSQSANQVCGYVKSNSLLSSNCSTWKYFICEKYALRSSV"}, "[8]": {"molecular_target": "T8, Human Clec4E (human, UniProt Q9ULY5 1-219)", "T8 construct": "also called hClec4E", "T8 sequence": "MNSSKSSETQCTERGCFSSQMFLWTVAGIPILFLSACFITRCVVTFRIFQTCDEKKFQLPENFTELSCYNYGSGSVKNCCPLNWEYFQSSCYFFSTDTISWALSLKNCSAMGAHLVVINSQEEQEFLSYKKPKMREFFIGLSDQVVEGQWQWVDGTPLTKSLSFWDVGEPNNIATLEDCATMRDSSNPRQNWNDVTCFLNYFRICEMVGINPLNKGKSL"}},
  "data": [
    {"binder": "B1", "values": [
      {"measurement": "MFI normalized to WT", "setting": "[1]", "value": 0.96},
      {"measurement": "MFI normalized to WT", "setting": "[2]", "value": 0.98},
      {"measurement": "MFI normalized to WT", "setting": "[3]", "value": 1.01},
      {"measurement": "MFI normalized to WT", "setting": "[4]", "value": 0.95},
      {"measurement": "MFI normalized to WT", "setting": "[5]", "value": 0.92},
      {"measurement": "MFI normalized to WT", "setting": "[6]", "value": 1.13},
      {"measurement": "MFI normalized to WT", "setting": "[7]", "value": 1.07},
      {"measurement": "MFI normalized to WT", "setting": "[8]", "value": 0.94}
    ]}
  ]
}
